# According to patent US6462177B1, “Mammalian blood loss-induced gene, kd312” (Amgen Inc., priority 1998, dated 2002):
# “Also recorded” adds a separate entry of the source.
# Key:
# 293 cells = assay: Establishment of 293 cell lines constitutively expressing genes from pCEP4; format: cell-based, human; conditions: no stable cell line could be established
# Method: (§1) Transfections of 293 cells with the plasmid pCEP4 or its derivatives were performed by using LipofectAMINE Reagent and the protocol supplied with it by Gibco BRL. Transfected cells were grown in Gibco BRL D-MEM high-glucose medium that lacked sodium pyruvate and was supplemented with 10% FBS and 300 μg/ml hygromycin. Fluorescence-activated cell sorting (FACS) for apoptosis assays was performed according to Polverino and Patterson, J. Biol. Chem. 272, No. 11: 7013-7021 (1997).
# (§2) Involvement of kd312 in apoptosis was tested in the human embryonal kidney cell line 293 following expression of this gene from the episomal expression vector pCEP4. Derivatives of 293 cells constitutively expressing human kd312, bcl-2, R-ras, and murine H-ras genes from pCEP4 were established. Expression of each gene was confirmed by Western blotting experiments (data not shown). […] It has been shown that R-ras promotes apoptosis following expression in 32, D3, FL5.12, and NIH3T3 cells. […] The levels of inhibition following expression of the ras genes, particularly R-ras, were unmistakably lower than those resulting from the expression of kd312.
# [1] = tested on: human embryonal kidney cell line 293; assay: FACS analysis of geranylgeraniol-induced apoptosis in 293 cells transfected with various genes; format: cell-based; conditions: 293 cells constitutively expressing the gene from pCEP4; 10 μM geranylgeraniol; propidium iodide FACS
# Method: FIG. 4 depicts inhibition of apoptosis by human kd312 as compared to other proteins (as indicated). Shown graphs are the results from FACS analysis of apoptosis induced by geranylgeraniol in 293 cells transfected with various genes. Cells were treated with 10 μM geranylgeraniol for various times as indicated. Subsequently, the cells were washed and stained with 50 μg/ml propidium iodide in 3.8 mM sodium citrate pH 7.0 and analyzed using a FACScan flow cytometer. The extent of apoptosis was determined by measuring the proportion of cells displaying hypo-diploid DNA content. The data represent the average of 2 independent experiments.
# as §1, §2
# H-Ras = target: T1, H-Ras (Homo sapiens, UniProt P01112); assay: Yeast two-hybrid interaction test; format: binding; conditions: yeast two-hybrid system
# T1 construct: expressed in transfected cells
# From the text: (§3) To define the way that kd312 exerts its function we have tested its interaction with human Raf, H-Ras, and bcl-2 using a yeast two-hybrid system. […] Work is in progress to search for kd312 interacting proteins using the same yeast system.
# bcl-2 = target: T2, bcl-2 (Homo sapiens, UniProt P10415); assay: Yeast two-hybrid interaction test; format: binding; conditions: yeast two-hybrid system
# T2 construct: expressed in transfected cells
# From the text: as §3
# human Raf = target: T3, human Raf (Homo sapiens, UniProt P04049); assay: Yeast two-hybrid interaction test; format: binding; conditions: yeast two-hybrid system
# T3 construct: expressed in transfected cells
# From the text: as §3
# T2 sequence (P10415 whole entry): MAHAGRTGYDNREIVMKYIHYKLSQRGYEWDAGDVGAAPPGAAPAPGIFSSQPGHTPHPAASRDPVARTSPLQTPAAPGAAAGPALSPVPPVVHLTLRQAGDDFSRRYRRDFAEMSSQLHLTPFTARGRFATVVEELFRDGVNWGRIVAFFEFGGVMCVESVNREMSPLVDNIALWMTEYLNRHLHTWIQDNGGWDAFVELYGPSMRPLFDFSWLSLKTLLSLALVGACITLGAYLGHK
interaction with H-Ras (H-Ras),interaction with bcl-2 (bcl-2),interaction with human Raf (human Raf),Molecule,outcome of gene expression in 293 cells (293 cells),effect on geranylgeraniol-induced apoptosis (proportion of cells with hypo-diploid DNA content) [1]
–,–,–,bax: murine bax gene product; expression in 293 cells led to cell death,invariably led to cell death,–
–,–,–,"bcl-2: bcl-2 gene product, a potent apoptosis inhibitor, expressed from pCEP4 in 293 cells [reference compound]",–,protected 293 cells from geranylgeraniol-induced apoptosis
–,–,–,"R-ras: human R-ras gene product of the Ras family, expressed from pCEP4 in 293 cells (protein, UniProt P10301 1-215, looked up) Ras-related protein R-Ras: MSSGAASGTGRGRPRGGGPGPGDPPPSETHKLVVVGGGGVGKSALTIQFIQSYFVSDYDPTIEDSYTKICSVDGIPARLDILDTAGQEEFGAMREQYMRAGHGFLLVFAINDRQSFNEVGKLFTQILRVKDRDDFPVVLVGNKADLESQRQVPRSEASAFGASHHVAYFEASAKLRLNVDEAFEQLVRAVRKYQEQELPPSPPSAPRKKGGGCPC",–,inhibited apoptosis
No interaction,No interaction,No interaction,"kd312: human kd312 protein (281 amino acids), blood loss-induced, distantly related to the Ras family, expressed from cDNA (protein) MKLAAMIKKMCPSDSELSIPAKNCYRMVILGSSKVGKTAIVSRFLTGRFEDAYTPTIEDFHRKFYSIRGEVYQLDILDTSGNHPFPAMRRLSILTGDVFILVFSLDNRDSFEEVQRLRQQILDTKSCLKNKTKENVDVPLVICGNKGDRDFYREVDQREIEQLVGDDPQRCAYFEISAKKNSSLDQMFRALFAMAKLPSEMSPDLHRKVSVQYCDVLHKKALRNKKLLRAGSGGGGGDPGDAFGIVAPFARRPSVHSDLMYIREKASAGSQAKDKERCVIS",–,protects the cells from apoptosis; also recorded: protected 293 cells from geranylgeraniol-induced apoptosis; also recorded: protects 293 cells from chemical-induced apoptosis
